Experiments:
Assay in all cases: ELISA, gp120 on plate
[1] = target: CH505 M5 gp120 (HIV-1)
[2] = target: CH505 w030.21 gp120 (HIV-1)
[3] = target: CH505 transmitted/founder (TF) gp120 (HIV-1)
[4] = target: CH505 w100.B6 gp120 (HIV-1)
[5] = target: CH505 w020.14 gp120 (HIV-1)
[6] = target: CH505 w053.31 gp120 (HIV-1)
[7] = target: CH505 w078.15 gp120 (HIV-1)
[8] = target: CH505 w078.33 gp120 (HIV-1)
[9] = target: CH505 w030.28 gp120 (HIV-1)
[10] = target: CH505 M11 gp120 (HIV-1)
[11] = target: CH505 w053.16 gp120 (HIV-1)

Row | Substance | log AUC [1] [log AUC] | log AUC [2] [log AUC] | log AUC [3] [log AUC] | log AUC [4] [log AUC] | log AUC [5] [log AUC] | log AUC [6] [log AUC] | log AUC [7] [log AUC] | log AUC [8] [log AUC] | log AUC [9] [log AUC] | log AUC [10] [log AUC] | log AUC [11] [log AUC]
1 | CH103 lineage intermediate ancestor IA1 (antibody) | 7 | 11.8 | 10.4 | 12.2 | 10.3 | 13.4 | 10.9 | 8.2 | 10.1 | 12.2 | 8.8
2 | CH103 lineage intermediate ancestor IA2 (antibody) | 7.8 | 11.5 | 10.8 | 12.1 | 11 | 13.3 | 11.5 | 9 | 11.1 | 12.7 | 9.3
3 | CH104 (antibody) | 9 | 11.3 | 10.4 | 11 | 10.4 | 13.7 | 10.8 | 9 | 10.7 | 12 | 9.9
